Measurements as given in patent US20250121082A1 (SHANDONG BOAN BIOTECHNOLOGY, published 2025).
Where a chain is given by its changes, count along the chain named.

T1: Human CD228 protein (human, UniProt P08582 20-708, limits assumed)
T1 construct: Recombinant protein made in CHO cells, purified over a Ni column; The printed entry begins with the leader (MRGPSG...) and ends with ten His; also called hCD228; CD228-His protein
T1 sequence: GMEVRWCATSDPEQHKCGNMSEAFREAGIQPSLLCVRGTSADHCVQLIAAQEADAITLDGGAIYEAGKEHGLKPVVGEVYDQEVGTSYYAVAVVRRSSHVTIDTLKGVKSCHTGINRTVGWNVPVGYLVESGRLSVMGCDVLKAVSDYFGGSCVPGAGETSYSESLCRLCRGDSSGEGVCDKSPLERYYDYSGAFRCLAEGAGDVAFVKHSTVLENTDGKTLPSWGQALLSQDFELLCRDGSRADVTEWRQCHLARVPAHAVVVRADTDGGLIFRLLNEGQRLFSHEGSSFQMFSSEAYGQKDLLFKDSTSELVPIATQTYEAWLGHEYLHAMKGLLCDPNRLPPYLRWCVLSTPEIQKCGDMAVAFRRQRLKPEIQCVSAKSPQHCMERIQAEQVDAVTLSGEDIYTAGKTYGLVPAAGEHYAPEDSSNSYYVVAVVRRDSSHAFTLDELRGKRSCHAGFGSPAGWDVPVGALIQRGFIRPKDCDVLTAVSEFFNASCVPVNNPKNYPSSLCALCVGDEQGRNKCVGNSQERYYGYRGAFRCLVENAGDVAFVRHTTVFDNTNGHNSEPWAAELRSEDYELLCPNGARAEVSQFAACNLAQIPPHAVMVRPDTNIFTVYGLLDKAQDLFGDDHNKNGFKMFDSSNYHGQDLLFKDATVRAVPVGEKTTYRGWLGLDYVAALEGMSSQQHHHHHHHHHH

T2: CD228 protein on human melanoma SK-MEL-5 cells (human, UniProt P08582 20-709)
T2 construct: whole, on cells; Endogenous CD228 on the cell line; also called SK-MEL-5 cells (expressing CD228 proteins)
T2 sequence (looked up): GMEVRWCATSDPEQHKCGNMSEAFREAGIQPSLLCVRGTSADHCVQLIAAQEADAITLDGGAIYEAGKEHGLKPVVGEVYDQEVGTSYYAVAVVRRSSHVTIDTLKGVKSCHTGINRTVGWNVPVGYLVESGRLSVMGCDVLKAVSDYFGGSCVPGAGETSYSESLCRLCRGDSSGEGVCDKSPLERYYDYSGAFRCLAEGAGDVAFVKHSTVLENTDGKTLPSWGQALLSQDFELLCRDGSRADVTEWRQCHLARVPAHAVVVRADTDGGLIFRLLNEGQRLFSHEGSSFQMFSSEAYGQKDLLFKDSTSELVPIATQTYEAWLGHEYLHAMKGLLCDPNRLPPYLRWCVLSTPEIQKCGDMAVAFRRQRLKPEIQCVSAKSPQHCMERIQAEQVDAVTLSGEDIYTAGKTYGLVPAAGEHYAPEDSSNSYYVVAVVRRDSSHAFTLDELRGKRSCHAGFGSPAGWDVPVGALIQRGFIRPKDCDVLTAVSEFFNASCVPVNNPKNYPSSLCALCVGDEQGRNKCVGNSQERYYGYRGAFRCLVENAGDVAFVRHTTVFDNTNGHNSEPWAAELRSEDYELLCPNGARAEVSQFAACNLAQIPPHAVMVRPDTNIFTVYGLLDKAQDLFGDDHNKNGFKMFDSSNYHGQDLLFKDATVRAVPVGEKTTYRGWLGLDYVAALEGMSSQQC

B1: CA149 (antibody, human IgG1, kappa, V domains shown)
VH: EVQLVESGGGVVQPGRSLRLSCAASGFTFSSYAMHWVRQAPGKGLEWVAVISFDGSNKYYTDSVKGRFTISRDNSKNTLYLQMNSLRAEDTAVYYCAREVPYYYGSGPFDYWGQGTLVTVSS
VL: EIVLTQSPATLSVSPGERATLSCRASQSVSSNLAWYQQKPGQAPRHLIDGASSRASGIPDRFSGSGSGTDFTLTISRLEPEDFAVYYCQQYGSSPPFTFGPGTKVDIKR
notes: Intact IgG1; also called CA149 antibody
B2: CA185 (antibody, human IgG1, kappa, V domains shown)
VH: B1 VH with F53Y, T61A
VL: EIVLTQSPGTLSLSPGERATLSCRASQSVSSSSLAWYQQKPGQAPRHLIDGASSRASGIPDRFSGSGSGTDFTLTISRLEPEDFAVYYCQQYGSSYTFGQGTKVDIKR
notes: Intact IgG1
B3: BA352 (antibody, human IgG1, kappa, V domains shown)
VH: EVQLVESGGGVVQPGRSLRLSCAASGFTFSSYAMHWVRQAPGKGLEWVAVISYDGSNKYYADSVKGRFTISRDNSKNTLYLQMNSLRAEDTAVYYCARGPYLAAAGTALTFDIWGQGTMVTVSS
VL: DIQMTQSPSAMSASVGDRVTITCRASQGINNYLAWFQQKPGKVPKRLIYAASSLQSGVPSRFSGSGSGTEFTLTISSLQPEDFATYYCLQHNSYPFTFGPGTKVDIKR
notes: Intact IgG1
B4: CA13 (antibody, human IgG1, kappa, V domains shown)
VH: EVQLVESGGGVVQPGRSLRLSCAASGFTFSSYAMHWVRQAPGKGLEWVAVISYDGSNKYYADSVKGRFTISRDNSKNTLFLQMNSLRAEDTAVYYCARDVYHYGSRSPYYYGMDVWGQGTTVTVSS
VL: DIVMTQSPSSLSASVGDRVTITCRASQGISNYLAWFQQKPGKVPKLLIYAASTLQSGVPSRFSGSGSGTDFTLTISSLQPEDVATYYCQKYNSAPFTFGPGTKVDIKR
notes: Intact IgG1 from fully human antibody-transgenic mice
B5: CA67 (antibody, human IgG1, kappa, V domains shown)
VH: B4 VH with F80Y
VL: B4 VL with V3Q, G28A, F36Y, Q55H, S56P
notes: Intact IgG1
B6: CA518 (antibody, human IgG1, kappa, V domains shown)
VH: B4 VH with Y60H, A97V
VL: B4 VL with V3Q, L11V, N31S, Y32W, F36Y, V43A, T53S
notes: Intact IgG1
B7: reference antibody hL49 (antibody, human IgG1, kappa, V domains shown)
VH: QVQLQESGPGLVKPSETLSLTCTVSGDSITSGYWNWIRQPPGKGLEYIGYISDSGITYYNPSLKSRVTISRDTSKNQYSLKLSSVTAADTAVYYCARRTLATYYAMDYWGQGTLVTVSS
VL: DFVMTQSPLSLPVTLGQPASISCRASQSLVHSDGNTYLHWYQQRPGQSPRLLIYRVSNRFSGVPDRFSGSGSGTDFTLKISRVEAEDVGVYYCSQSTHVPPTFGQGTKLEIKR
notes: also called H149; hL49 analogy

molecular target: T1, Human CD228 protein; test: ELISA, plate coated with human CD228 protein
Experimental: Human CD228 protein (prepared by Boan, 20201014, SEQ ID NO: 41) was diluted to 0.1 μg/mL with a carbonate-buffered saline (hereinafter referred to as CBS) at pH 9.6. Microplates were coated with the protein at 100 μL/well, and incubated at 4° C. overnight. After washing, the microplates were blocked with skimmed milk powder. The plates were washed, before antibodies diluted with PBST (phosphate-buffered saline, Solarbio P1010, +0.05% Tween20) were added at 100 μL/well. The diluted antibodies were intact antibodies comprising Fc, Fab and the constant region serially 3-fold diluted from 0.1 μg/mL to 8 concentrations with PBST. After washing the plates, goat anti-human IgG (H+L)/HRP (diluted at 1:5000, KPL, 474-1006) was added at 100 μL/well, and the plates were incubated at 37° C. for 1 h. After washing the plates, TMB (Beijing Makewonderbio, 1001) was added at 100 μL/well for chromogenesis, and after 10 min, 50 μL of 2 M H₂SO₄ was added to stop the chromogenesis. OD450 was measured on a microplate reader. The antibody hL49 targeting CD228 from Seagen was used as a reference antibody in this study and the following studies.

In order of rising EC50:
1. B4  0.0032 µg/mL
2. B1  0.0036 µg/mL
3. B5  0.0038 µg/mL
4. B2  0.0039 µg/mL
5. B6  0.0043 µg/mL
6. B3  0.0061 µg/mL
7. B7  0.0278 µg/mL

molecular target: T1, Human CD228 protein; test: Octet competition on His-chip CD228; competitor: hl49
Experimental: (§1) CD228 proteins were immobilized on His chips at 10 μg/mL with a threshold of 0.5 nm. The first CD228 antibody (30 μg/mL) was immobilized, and the competitive binding of the second CD228 antibody (30 μg/mL) was analyzed. The Octet 8K system was used to analyze the response of antibody 2 and to determine whether antibody 1 and antibody 2 were in competition.
(§2) The final competition analysis was conducted using the following calculation method: 1—response value/blank value.

In order of falling “competition (1-response value/blank value)” value:
1. B3  100%
2. B7  95%
3. B6  19%
4. B5  5%
5. B1  0%
6. B4  -2%
7. B2  -3%

molecular target: T1, Human CD228 protein; test: Octet competition on His-chip CD228; competitor: CA149
Experimental: as §1

In order of falling Octet response value:
1. B7  0.435
2. B3  0.416
3. B2  0.0089
4. B1  0.0039
5. B6  -0.0041
6. B4  -0.0059
7. B5  -0.012

molecular target: T1, Human CD228 protein; test: Octet competition on His-chip CD228; competitor: CA185
Experimental: as §1, §2

In order of rising “competition (1-response value/blank value)” value:
1. B7  -5%
2. B3  -3%
3. B1  98%
4. B2  99%
5. B4  101%
6. B6  101%
7. B5  103%

molecular target: T2, CD228 protein on human melanoma …; test: flow cytometry on SK-MEL-5 cells, fluorescent secondary antibody, MFI
Experimental: To a 96-well round-bottom plate, human melanoma SK-MEL-5 cells (ATCC, HTB-70) were added with a cell density of 7E4 cells/50 μL/well. The antibodies were serially diluted with an FACS buffer (PBS, Boster Biological Technology, Catalog No. PYG0021) and added to the 96-well round-bottom plate at 50 μL/well. The plate was then incubated at 4° C. for 1 h. The supernatant was discarded after centrifugation at 400 g for 4 min. The plate was washed once with FACS buffer, before a fluorescent secondary antibody (Jackson, 109545-008) at 100 μL/well was added. The mixture was incubated at 4° C. in the dark for 30 min and centrifuged at 400 g for 4 min. The supernatant was discarded. The cells were washed once with FACS buffer, resuspended in FACS buffer at 100 μL/well, and loaded on a flow cytometer (ACEA Pharma, NovoCyte 2060) for analysis. […] The isotype reference antibody in FIG. 4 is an irrelevant antibody targeting other antigens with constant regions similar to the experimental anti-CD228 antibodies but with different variable regions.

In order of rising EC50:
1. B6  0.081 µg/mL
2. B4  0.083 µg/mL
3. B5  0.096 µg/mL
4. B2  0.123 µg/mL
5. B1  0.135 µg/mL
6. B3  0.152 µg/mL
7. B7  0.195 µg/mL
